# Target: T1, Cdc48-FLAG3 (S. cerevisiae, UniProt P25694 1-835)
# T1 construct: Cdc48, S. cerevisiae; the results and the purification methods say it was purified from yeast; also called FLAG-tagged Cdc48; purified Cdc48; source: S. cerevisiae W303, expressed from the endogenous locus; in extract for the co-IP
# Experiment: pull-down; GST, GST-GYF or GST-GAF on glutathione beads, 10-fold molar excess of Cdc48-Flag; 20 mM Tris pH 7.5, 200 mM NaCl, 0.05% Triton X-100, 15% glycerol, 75 ug/mL BSA; 2 h; western blot
# Details: both partners purified
# T1 sequence (P25694 whole entry): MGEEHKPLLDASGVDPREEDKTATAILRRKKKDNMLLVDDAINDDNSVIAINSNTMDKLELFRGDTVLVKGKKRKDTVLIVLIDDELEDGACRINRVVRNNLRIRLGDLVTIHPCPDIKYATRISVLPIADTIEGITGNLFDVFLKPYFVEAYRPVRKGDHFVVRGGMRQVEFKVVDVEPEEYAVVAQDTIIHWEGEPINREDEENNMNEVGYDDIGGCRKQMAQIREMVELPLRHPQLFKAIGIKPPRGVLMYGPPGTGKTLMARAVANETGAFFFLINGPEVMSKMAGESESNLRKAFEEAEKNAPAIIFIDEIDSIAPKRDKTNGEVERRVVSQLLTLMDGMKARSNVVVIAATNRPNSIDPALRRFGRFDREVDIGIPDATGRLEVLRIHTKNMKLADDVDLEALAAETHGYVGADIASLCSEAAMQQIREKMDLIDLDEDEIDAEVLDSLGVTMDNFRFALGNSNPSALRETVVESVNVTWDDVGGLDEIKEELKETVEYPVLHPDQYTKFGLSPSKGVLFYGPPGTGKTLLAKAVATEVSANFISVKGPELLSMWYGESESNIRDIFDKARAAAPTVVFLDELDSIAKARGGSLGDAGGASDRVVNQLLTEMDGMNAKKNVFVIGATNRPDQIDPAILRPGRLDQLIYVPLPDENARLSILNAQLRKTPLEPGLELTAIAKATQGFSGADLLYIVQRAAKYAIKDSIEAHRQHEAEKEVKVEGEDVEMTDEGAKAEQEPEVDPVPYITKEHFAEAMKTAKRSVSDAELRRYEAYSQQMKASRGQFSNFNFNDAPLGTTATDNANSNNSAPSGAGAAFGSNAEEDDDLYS
row,Binder,binding result
1,"GST-Smy2 (205-261), GYF (domain or fragment, S. cerevisiae, UniProt P32909 205-261, looked up, Smy2, S. cerevisiae, amino acids 205-261 holding the GYF motif; Vector pGST 6p-1 / pGEX 6p-1; also called GST-GYF; GST-Smy_(205-261); source: bacterial expression (E. coli), purified on glutathione agarose beads) ESSWRYIDTQGQIHGPFTTQMMSQWYIGGYFASTLQISRLGSTPETLGINDIFITLG",binds
2,"GST-Smy2 (205-261) Y234A, GAF (domain or fragment, S. cerevisiae, UniProt P32909 205-261, looked up, Smy2, S. cerevisiae, amino acids 205-261 with the GYF motif changed to GAF; also called GST-GAF; mutated (GAF) version; source: bacterial expression (E. coli), purified on glutathione agarose beads) ESSWRYIDTQGQIHGPFTTQMMSQWYIGGAFASTLQISRLGSTPETLGINDIFITLG",binds
